# From patent US20240150447A1
# pKd: −log10 of the molar value.
# Key:
# [1] = molecular target: human FcRn and human B2M (beta-2-microglobulin) expressed on MDCK II cells (human) (UniProt P55899); experiment: cell-based or functional assay
# [2] = molecular target: human FcRn protein (human) (UniProt P55899); experiment: SPR, Ab on Protein L chip, hFcRn in flow, pH 6.0
# [3] = molecular target: human FcRn protein (human) (UniProt P55899); experiment: SPR, Ab on Protein L chip, hFcRn in flow, pH 7.4
# Sequence of human FcRn and human B2M (beta-2-microglobulin) expressed on MDCK II cells (human) (P55899 24-365 limits assumed, chain 1 of 2): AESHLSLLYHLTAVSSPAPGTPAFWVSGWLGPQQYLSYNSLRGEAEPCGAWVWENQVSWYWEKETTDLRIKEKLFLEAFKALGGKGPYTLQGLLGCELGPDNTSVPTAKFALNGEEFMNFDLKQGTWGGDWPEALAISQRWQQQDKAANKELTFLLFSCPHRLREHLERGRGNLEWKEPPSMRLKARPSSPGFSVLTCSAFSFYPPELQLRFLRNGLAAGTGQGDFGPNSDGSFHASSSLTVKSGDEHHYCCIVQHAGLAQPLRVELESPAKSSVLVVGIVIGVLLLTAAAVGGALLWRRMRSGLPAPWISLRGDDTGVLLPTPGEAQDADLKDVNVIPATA
# Sequence of human FcRn and human B2M (beta-2-microglobulin) expressed on MDCK II cells (human) (b2m, as listed by the source limits assumed, chain 2 of 2): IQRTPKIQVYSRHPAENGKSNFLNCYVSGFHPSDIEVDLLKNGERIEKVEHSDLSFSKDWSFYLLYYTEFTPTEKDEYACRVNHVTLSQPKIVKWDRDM
# Sequence of human FcRn protein (human) (P55899 24-297 limits assumed, chain 1 of 2): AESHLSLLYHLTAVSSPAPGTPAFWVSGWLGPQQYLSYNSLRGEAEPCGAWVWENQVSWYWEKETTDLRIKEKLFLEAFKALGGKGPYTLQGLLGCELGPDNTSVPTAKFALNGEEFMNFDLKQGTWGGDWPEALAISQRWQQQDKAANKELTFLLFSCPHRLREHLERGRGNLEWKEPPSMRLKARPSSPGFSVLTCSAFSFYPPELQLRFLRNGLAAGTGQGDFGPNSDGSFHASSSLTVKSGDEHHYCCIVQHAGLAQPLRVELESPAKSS
# Sequence of human FcRn protein (human) (chain, as listed by the source limits assumed, chain 2 of 2): as the sequence (b2m, as listed by the source limits assumed, chain 2 of 2) above
substance,measurement,setting,value
anti-O4 hIgG1 M252Y/T256F/V308P/N434F (antibody),Transcytosis Normalized to IAHA at pH 6.0 (ratio to IAHA),[1],60.4
anti-O4 hIgG1 M252Y/T256F/V308P/N434Y (antibody),Transcytosis Normalized to IAHA at pH 6.0 (ratio to IAHA),[1],193
"hIgG1 M252Y/S254T/T256E/V308P/N434W, O4 VH with Ab6 light chain (antibody)",pKd,[2],9.33
same,koff,[2],0.000795 s⁻¹
same,kon,[2],1.69e+06 M⁻¹ s⁻¹
same,pKd,[3],6.91
same,koff,[3],0.00101 s⁻¹
same,kon,[3],8320 M⁻¹ s⁻¹
anti-O4 hIgG1 M252Y/T256L/V308P/N434W (antibody),Transcytosis Normalized to IAHA at pH 6.0 (ratio to IAHA),[1],217
anti-O4 hIgG1 M252Y/T256R/V308P/N434Y (antibody),Transcytosis Normalized to IAHA at pH 6.0 (ratio to IAHA),[1],655
"hIgG1 M252Y/T256K/V308P/N434W, O4 VH with Ab6 light chain (antibody)",pKd,[2],8.88
same,koff,[2],0.00143 s⁻¹
same,pKd,[3],6.62
anti-O4 hIgG1 M252Y/T256R/V308P/N434W (antibody),Transcytosis Normalized to IAHA at pH 6.0 (ratio to IAHA),[1],162
anti-O4 hIgG1 M252Y/T256E/V308P/N434Y (antibody),Transcytosis Normalized to IAHA at pH 6.0 (ratio to IAHA),[1],124
"hIgG1 M252Y/S254T/V308P, O4 VH with Ab6 light chain (antibody)",pKd,[2],7.50
same,koff,[2],0.0177 s⁻¹
same,kon,[2],557000 M⁻¹ s⁻¹
same,pKd,[3],4.12
same,koff,[3],1.13 s⁻¹
same,kon,[3],14700 M⁻¹ s⁻¹
anti-O4 hIgG1 M252Y/T256W/V308P/N434Y (antibody),Transcytosis Normalized to IAHA at pH 6.0 (ratio to IAHA),[1],588
anti-O4 hIgG1 M252Y/T256S/V308P/N434Y (antibody),Transcytosis Normalized to IAHA at pH 6.0 (ratio to IAHA),[1],156
anti-O4 hIgG1 M252Y/T256P/V308P/N434Y (antibody),Transcytosis Normalized to IAHA at pH 6.0 (ratio to IAHA),[1],132
anti-O4 hIgG1 M252Y/T256H/V308P/N434F (antibody),Transcytosis Normalized to IAHA at pH 6.0 (ratio to IAHA),[1],192
anti-O4 hIgG1 M252Y/T256V/V308P/N434W (antibody),Transcytosis Normalized to IAHA at pH 6.0 (ratio to IAHA),[1],209
anti-O4 hIgG1 M252Y/T256D/V308P/N434W (antibody),Transcytosis Normalized to IAHA at pH 6.0 (ratio to IAHA),[1],153
anti-O4 hIgG1 M252Y/T256P/V308P/N434W (antibody),Transcytosis Normalized to IAHA at pH 6.0 (ratio to IAHA),[1],208
anti-O4 hIgG1 M252Y/T256Y/V308P/N434Y (antibody),Transcytosis Normalized to IAHA at pH 6.0 (ratio to IAHA),[1],8.35
anti-O4 hIgG1 M252Y/V308P (antibody),Transcytosis Normalized to IAHA at pH 6.0 (ratio to IAHA),[1],281
"hIgG1 M252Y/V308P, O4 VH with Ab6 light chain (antibody)",pKd,[2],7.43
same,koff,[2],0.0279 s⁻¹
same,kon,[2],745000 M⁻¹ s⁻¹
same,pKd,[3],7.29
same,koff,[3],0.00221 s⁻¹
same,kon,[3],42600 M⁻¹ s⁻¹
anti-O4 hIgG1 M252Y/T256G/V308P/N434Y (antibody),Transcytosis Normalized to IAHA at pH 6.0 (ratio to IAHA),[1],130
anti-O4 hIgG1 M252Y/T256I/V308P/N434Y (antibody),Transcytosis Normalized to IAHA at pH 6.0 (ratio to IAHA),[1],126
anti-O4 hIgG1 M252Y/T256Q/V308P/N434Y (antibody),Transcytosis Normalized to IAHA at pH 6.0 (ratio to IAHA),[1],286
anti-O4 hIgG1 M252Y/T256S/V308P/N434W (antibody),Transcytosis Normalized to IAHA at pH 6.0 (ratio to IAHA),[1],159
anti-O4 hIgG1 M252Y/T256Q/V308P/N434W (antibody),Transcytosis Normalized to IAHA at pH 6.0 (ratio to IAHA),[1],156
anti-O4 hIgG1 M252Y/T256V/V308P/N434Y (antibody),Transcytosis Normalized to IAHA at pH 6.0 (ratio to IAHA),[1],183
anti-O4 hIgG1 WT (wild type Fc) (antibody),Transcytosis Normalized to IAHA at pH 6.0 (ratio to IAHA),[1],122
anti-O4 hIgG1 M252Y/T256W/V308P/N434W (antibody),Transcytosis Normalized to IAHA at pH 6.0 (ratio to IAHA),[1],147
anti-O4 hIgG1 M252Y/T256E/V308P/N434W (antibody),Transcytosis Normalized to IAHA at pH 6.0 (ratio to IAHA),[1],154
"hIgG1 M252Y/N434Y/Y436V, O4 VH with Ab6 light chain (antibody)",pKd,[2],8.26
same,koff,[2],0.00756 s⁻¹
same,kon,[2],1.38e+06 M⁻¹ s⁻¹
same,pKd,[3],4.59
same,koff,[3],1.14 s⁻¹
same,kon,[3],44300 M⁻¹ s⁻¹
"hIgG1 M252Y/S254T/T256E/V308P, O4 VH with Ab6 light chain (antibody)",pKd,[2],7.67
same,koff,[2],0.0139 s⁻¹
same,kon,[2],648000 M⁻¹ s⁻¹
same,pKd,[3],6.01
same,koff,[3],1.96 s⁻¹
same,kon,[3],2.01e+06 M⁻¹ s⁻¹
anti-O4 hIgG1 M252Y/T256L/V308P/N434Y (antibody),Transcytosis Normalized to IAHA at pH 6.0 (ratio to IAHA),[1],303
anti-O4 hIgG1 M252Y/T256V/V308P/N434F (antibody),Transcytosis Normalized to IAHA at pH 6.0 (ratio to IAHA),[1],98.9
"hIgG1 M252Y/N286E/V308P/M428I/N434Y, O4 VH with Ab6 light chain (antibody)",pKd,[2],9.96
same,koff,[2],0.000201 s⁻¹
same,kon,[2],1.84e+06 M⁻¹ s⁻¹
same,pKd,[3],5.99
same,koff,[3],1.03 s⁻¹
same,kon,[3],1e+06 M⁻¹ s⁻¹
anti-O4 hIgG1 M252Y/T256E/V308P/N434H (antibody),Transcytosis Normalized to IAHA at pH 6.0 (ratio to IAHA),[1],155
anti-O4 hIgG1 M252Y/T256A/V308P/N434Y (antibody),Transcytosis Normalized to IAHA at pH 6.0 (ratio to IAHA),[1],193
anti-O4 hIgG1 M252Y/T256E/V308P/N434F (antibody),Transcytosis Normalized to IAHA at pH 6.0 (ratio to IAHA),[1],182
anti-O4 hIgG1 M252Y/T256N/V308P/N434Y (antibody),Transcytosis Normalized to IAHA at pH 6.0 (ratio to IAHA),[1],174
anti-O4 hIgG1 M252Y/T256A/V308P/N434W (antibody),Transcytosis Normalized to IAHA at pH 6.0 (ratio to IAHA),[1],190
